Experimental data as given in the nanobody polyreactivity screen of Harvey et al. (2022).

Assay: yeast display, Sf9 membrane polyspecificity reagent, FACS + sequencing; frameworks hold sequencing errors
Outline: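 Nanobodies from a synthetic yeast display library (Saccharomyces cerevisiae BJ5465), induced 36–48 hours with galactose, were stained 1 hour at 4 °C with 10% biotinylated, detergent-solubilized Sf9 membrane reagent, enriched on streptavidin microbeads, then FACS-sorted. Anti-HA (expression) and streptavidin (reagent binding) fluorescence set low and high (top ~1%) gates. Polyreactivity labels come from the gate of origin. Genes were colony-PCR amplified, MiSeq 2 × 250 sequenced and filtered by CDR length.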

In the case of “QVQLVESRGGLVQAGGSLRLSCAASGTTINFYPMGWYRQAPGKERELVAAIRVSSGSTYYADSVKGRFTISRDNAKNNVYLQMNSLKPEDTAVYYCAAFLKDRSPRDGYDYWGQGSQVTVSS”, the “polyreactivity (PSR sort gate)” value is reported as “high polyreactivity”.
In the case of “QVQLVESGGGLVQAVCSLRLSCAASGRTFHGNAMGWYRQAPGKERELVAAISYSGGRTYYADSVKGRFTISRDNAKNTVYLQMNSLKPEDTAVYYCAAWGSSYSFDYWGQGTQVTVSS”, the “polyreactivity (PSR sort gate)” value is reported as “high polyreactivity”.
In the case of “QVQLVESGGGLVQAGGSLRLSCAASGSTFGWYAMGWYRQAPGKERELVAAISTSGGSSYYADSVKGRFTISRDNAKNTVYLQMNSLKPEDTAVYYCNGYYRRYSITFDRYDYWGQGSQVTVSS”, the “polyreactivity (PSR sort gate)” value is reported as “high polyreactivity”.
With “QVQLVESGGGLVQAGGSLRLSCAASGRIFGFYGMGWYRQAPGKERELVAAITNRVGSTYYADSVKGRFTISRDNAKNTVYLHMHSLKPEDTAVYSCARRSGWWTRMDSWGQGTQVTVSS” the “polyreactivity (PSR sort gate)” value was “high polyreactivity”.
With “QVQLVESGGGLVQAGGSLRLSCAASGSIIDRYAMGWYRQAPGKERELVAAISYSGGRTYYADSVKGRFTISRDNAKNTVYLQMNSLKPEDTAVYYCAADSPYDEYDYWGQGTQVTVSS” the “polyreactivity (PSR sort gate)” value was “high polyreactivity”.
For “QVQLVESGGGLVQARGSLRLSCAASGITFYFNAMGWYRQAPGKERELVAVITSGGSTNYADSVKGRFTISRDNAKNTVYLQMISLKPEDTAVYYCATDKSYSSWSAQYDYWRQGTQVTVSS”, the “polyreactivity (PSR sort gate)” value was “low polyreactivity”.
With “QDQLVESGGGLVQAGGSLRLSCADSGRIFCINAMGWYRQAPGKERELVAAINWSGGSTYYADSVKGRFTISRDNAKNTVYLQMNSLKPEDTAVYYCAAQKYKRVGYWGQGTQVTVSS” the “polyreactivity (PSR sort gate)” value was “high polyreactivity”.
For “QVQLVESGGGLVQAGGSLRLSCAASGRTFGTYAMGWYRQAPGKERELVAAITGSGDRTYYADSVKGRFTISRDNAKNTVYLQMNSLKPEDTAVYYCAAYSDRSYGYWGQGTQVTVSS”, the “polyreactivity (PSR sort gate)” value was “low polyreactivity”.
In the case of “QVQLVESGGGLVQAGGSLRLSCAASGSTFATYAMGWYRQAPGKERELVAAITSGGSTYYADSVKGRFTISRDNAKNTVYLQMNSLKPEDTAVYYCAARSYGWRRATYYKREEYWGQGTQVTVSS”, the “polyreactivity (PSR sort gate)” value is reported as “high polyreactivity”.
With “QVHLVESGGGLVQAGGSLRLSCAASGFIFAGYTMGWYRQAPRKERELVAAINSGGSTKYADSVKGRFTISRDNAKNTVYLQMNSLKPEDTAVSYCNADYGWYFLFDYWGQGTQVTVSS” the “polyreactivity (PSR sort gate)” value was “low polyreactivity”.
With “QVPLVESGGGLVQAGGSLRLSCSASGIIFNAYTMGWYRQAPGKESELVAAITTAGSTHYADSVKGRFTISRDNAKNTVYLQMNSLKPEDTAVYYCNADTPVGKYAHLACYQDYDDWGQGTQVTVSS” the “polyreactivity (PSR sort gate)” value was “low polyreactivity”.
With “HDQLVESGGGLVQAGGSLRLSCAASGSTFTINVMGWYRQAPGKERELVAAINGGGRTNYADSVKGRFTISRDNAKNTVYVQMNILKPEDTAVYYCAADGLSNVRQMDYWGQGTQVTVSS” the “polyreactivity (PSR sort gate)” value was “low polyreactivity”.
In the case of “QVQLVESGGGLVQAGGSLRLSCAASGSIFYTYAMGWYRQAPGKERELVAAISRSGGSTYYADSVKGRFTISRDNAKNTVYLQMNSLKPEDTAVYYCAARPPYRVGIVPLGRREYYWGQGTQVTVSS”, the “polyreactivity (PSR sort gate)” value is reported as “high polyreactivity”.
In the case of “QVQLVESGGGLDQAGGSLRLTCAASGSIFEIYDRGWYRQAPGKEMELVASIRTSGGSTFYADSVKGRFTISRDNAKNTVYLQMNSLKPEDTAVYYCAAGDVPRRIYLVYVGYLLDYWGQGTQVTVSS”, the “polyreactivity (PSR sort gate)” value is reported as “low polyreactivity”.
With “QVQLVESGGGLVQAGGSLRLSCAASGITFRYYAMGWYRQAPGKERELVAAISSGSSTYYADSVKGRFTISRDNAKNTVYLQMNSLKPEDTAVYYCAARTYTTSRATTVYKRLNYWGQGTQVTVSS” the “polyreactivity (PSR sort gate)” value was “high polyreactivity”.
With “QVQLVESGGRIVQAGGSLRLICASSGLIFYDNMGWYRQAPGKERELVAAISSSGGSRTYADSVKGRFTISRDNAKNTVYLQMNSLKPEDTAVYYCAVDKHYYGRYGVTYDYDYWGQGTQVTVSS” the “polyreactivity (PSR sort gate)” value was “low polyreactivity”.
For “QVQLVESGGGLVQAGGSLRLSCAASGSIFGRYAMGWYRQAPGKERELVASINWNSGSTYYADSVKGRFTISRDNAKNTVYLQMNSLKPEDTAVYYCAAAALGYYGYWGQGTQVTVSS”, the “polyreactivity (PSR sort gate)” value was “low polyreactivity”.
For “QVQLVESGGGLVQAGGSLRLSCAASGRTFSANAMGWYRQAPGKDRELVAANRRTGGRTYYADSVKGRFTISRDNAKNTDYLQMNSLKPEDTAVYYCKAVNKPYTREYGYDYWGQGTQGTVSS”, the “polyreactivity (PSR sort gate)” value was “high polyreactivity”.
With “QVQLVESGGGLVQAGGSLRLSCAASGRTFSTYAMGWYRQAPGKERELVAAISWRGARTYYADSVKGRFTISRDNAKNTVYLQMNSLKPEDTAVYYCAVRSLVAIRGRAYYYWGQGTQVTVSS” the “polyreactivity (PSR sort gate)” value was “high polyreactivity”.
In the case of “QVQHVESGGGLVQAGGSLRLSCAASGLNLYSNAMGCYRQAPGNERELVAAISWIGASTYYADSVKGRFTISRDNAKNTVYLQMNSLKQEDTAVYYCATARYRGYPTYSYARDYCGQGTQVTVSS”, the “polyreactivity (PSR sort gate)” value is reported as “high polyreactivity”.
In the case of “QVQLVESGGGLLKAGGSLRLSCAASGRIFDIYNMGWYRPAPGKERELVAAISSSGGRTYYADSVKGRFTISRDNAKTTVYLQMKSVKPEDTAVYYGAARPSKYVGSRGYDYWGQGTQVTVSS”, the “polyreactivity (PSR sort gate)” value is reported as “high polyreactivity”.
With “QVQLVESGGGLVQAGGSLRLSCAASGFTFSSNAMGWSRPAPGKERELVAGITWSGGSTYYADSVKGRFTISRDNAKNTVYLQMNRLKPEDTAVYYCNFRYNASQYDYVYWGQGTQVTVSS” the “polyreactivity (PSR sort gate)” value was “low polyreactivity”.
With “QVQLVESGGGLVQAGGSLRLSCAASGRTLKYNVMGWYRQAPGKERELVASITSRGGSTRYADSVKGRFTISRDNAKNTVYLLMNSLKPEDTAVYYCAARYTTARSSYDYWGQGTQVTVSS” the “polyreactivity (PSR sort gate)” value was “high polyreactivity”.
With “QVQLVESGGGLVQAGGSLRLSCADSGSTFVLNAMGWYRQAPGKERELVAAISRCGASTYYADSVKGRFTISRDNAKNTVYLQMNSLKPEDTAVYYCNASGYGPGVVIYLVLYDYWGQGTQVTVSS” the “polyreactivity (PSR sort gate)” value was “low polyreactivity”.
With “QVQLVESGGGLVQAGGSLRLSCAASGRIFSTNAMGWYIQAPGKERELVAAISKNGGRTYYADSVKWRFTISRDNAKNTVYLQMNSLKPEDTAVYYCAAPVKPVTGYYPYDYWGQGTQVTVSS” the “polyreactivity (PSR sort gate)” value was “high polyreactivity”.
For “QVQLVESGGGLVPAGGSLRLSCAASGSTFPVYAMGWYRPAPGTERELVAAINSGVSTNYADSVKGRFTMSRDNANTTVYLQRNSLKPEDTAVYYCNTSYVGYPDLGINYEFDYWGQGTQVTVSS”, the “polyreactivity (PSR sort gate)” value was “low polyreactivity”.
In the case of “QVQLVESGGGLVQAGGSLRLSCAASGLTFYTYAMGWYRQAPGKERELVAAISTNGGSTYYADSVKGRFTISRDNAKNTVYLQMNSLKPEDTAVYYCAKEGGTYRIFNYWGQGTQVTVSS”, the “polyreactivity (PSR sort gate)” value is reported as “low polyreactivity”.
For “QVQLVESGGGLVQAGGSLRLSCAASGSTFGYYAMGWYRQAPGKERELVAAITYSGGGTYYADSVKGRFTISRDNAKNTVYLQMNSLKPEDTAVYYCAATIPYSLYGYDYWGQGTQVTVSS”, the “polyreactivity (PSR sort gate)” value was “low polyreactivity”.
In the case of “QVQLVESGGGLVQAGGSLRLSCAASGNTFGWNAMGWSRQAPGKERELVAAIDIGADTNYADSVKGRFTISRDNAKNTVYLQMNSLKPEDTAVYYCAASYRYVRWKWGYNYWGQGTQVTVSS”, the “polyreactivity (PSR sort gate)” value is reported as “high polyreactivity”.
For “QVQLVESGGGLVQAGGSLRLSCAASGFTFYTYAMGWYRQAPGKERELVATISGSGGDTNYADSVKGRFTISRDNEKNTVYLQMDSLKPEDTAVYYCAAEPDATTYSDPYDYWGQGTQVTVSS”, the “polyreactivity (PSR sort gate)” value was “low polyreactivity”.
For “QVQLVESGGGLVQAGGSLRLSCAASGSTFWIYPMGWYRQAPGKERELVAAISNGDSTNYADSVKGRFTISRDNAKNTVYLQMNSLKPEDTAVYYCARQYRIFKTFKYDYWGQGTQVTVSS”, the “polyreactivity (PSR sort gate)” value was “low polyreactivity”.
In the case of “HVQLVESGGGLVQAGGSLRLSCAASGRTFYFNTMGWYRQAPGKEMELVASISYGSNTNYADSVKGRFTISRDNAKNTVYLQMNSLKPEDTAVYFCAVRWVYRTSSWGARYGRYDYWGQGTQVTVSS”, the “polyreactivity (PSR sort gate)” value is reported as “high polyreactivity”.
For “QVQLVDSGGGLVQAGGSLRLSCAASGRTFYYYAMGWYRQAPGKERELVADIRGRGGSTYYADSVKGRFTISRDNAKNTVYLQMNSLKPEDTAVYYCARRSPNPYSIYYYWGQGTQVTVSS”, the “polyreactivity (PSR sort gate)” value was “high polyreactivity”.
In the case of “QVQLVESGGGLVQAGGSLRLSCDASGRTFPINAMGWYRQAPGKERELVAAISSGDGITYYADSVKGRFTISRDNAKNTVYLQMNSLKPEDTAVYYCAKELSQGLRYDYWGQGTQVTVSS”, the “polyreactivity (PSR sort gate)” value is reported as “high polyreactivity”.
In the case of “QVQLVESGGGLVQAGGSLRLSCAASGFIFYYYAMGWYRQAPGKERELVATITSGGGTYYADSVKGRFTISRDNAKNTVYVQMISLKPEDTAVYYCAKRDLEQSAFLGYDYWGQGTQVTVSS”, the “polyreactivity (PSR sort gate)” value is reported as “low polyreactivity”.
With “QVQLVESGGGLVQAGGSLRLSCAASGFTFRSYAMGWYRQAPGKERELVAVISSSGGSTYYADSVKGRFTISRDNAKNTVYLQMNSLKPEDTAVYYCNRRPATRAYLYDYWGQGTQVTVSS” the “polyreactivity (PSR sort gate)” value was “high polyreactivity”.
For “QVQLVESGGGLFQAGGRLLLSCAASGRIFTYNTRGWYRQAPGKEREFVAAISSSSVSTYYADSVKGRITISRDNAKYTVYLQMNCLKPEDTAVYYCAAKRVGYHIGYVYPYGYWGQGTQVTVSS”, the “polyreactivity (PSR sort gate)” value was “high polyreactivity”.
In the case of “QVQLVESGGGLVQAGGSLRLSCAASGGILDTSAMGWYRQAPGKERELVAAITSGGHTNYADSVKGRFTISRDNAKNTVYLQMNSLKPEDTAVYYCNVVTWYYVFRPWEYDYWGHGTQVTVSS”, the “polyreactivity (PSR sort gate)” value is reported as “low polyreactivity”.
For “QVQLVESGGGLVQAGGSLRLSCAASGSIFGNKAMGWYRQAPGKERELVAASSNDGDNSYYADSVKGRFTISRDKAKNTVYLQMNSLKPEDTAVYYCAADYVGVTSVRYDYWGQGTEVTVSS”, the “polyreactivity (PSR sort gate)” value was “low polyreactivity”.
With “QVQLVESGGGLVQAGGSLRLSCAASGRTFSYYAMGWYRQAPGKERELVAAISSGGSTNYADSVKGRFTISRDNAKNTVYLQMNSLKPEDPAFYYCANSSIWGSGRVRWVTYYFWGQGTQVTVSS” the “polyreactivity (PSR sort gate)” value was “low polyreactivity”.
In the case of “QVQHVESGGCLVQAGGSLRLSCAASGYTFRYYAMGWYRQAPGKERELVAAINWSGCSTYYADSVKGRFTISRDNAKNTVYLHMNSLKPEDTAVYYCAADPDGDVDIDYDYWGQGTQVTVSS”, the “polyreactivity (PSR sort gate)” value is reported as “low polyreactivity”.
With “QVQLVESGGGLVQAGGSLRLSCAASGSIFGSNAMGWYRRAPGKERELVAVINASGASTYYADSVKGRFTISRDNAKNTVYLQKNSLKPEDTAVYYCAKDPFPFPGGDYWGQGTQVTVSS” the “polyreactivity (PSR sort gate)” value was “low polyreactivity”.
With “QVQLVESGGGLVQAGGSLRVSCAASGNTFYYTMGWYLQAPGKERELVATISYDGTSTYYADSVKGRFTISRDNAKNTVYLQKNSLKPEDTAVYYSSAYGTVVTLNDYWGQGTQVTVSS” the “polyreactivity (PSR sort gate)” value was “low polyreactivity”.
